From patent publication US20140171625A1 (FATE THERAPEUTICS, published 2014)

Tests used:
[1] = target: gp130 (on C2C12 myoblasts) (UniProt Q00560); experiment: cell-based or functional assay
[2] = target: T1, gp130 (on C2C12 myoblasts) (UniProt Q00560 23-917, limits assumed); experiment: cell-based or functional assay
T1 sequence (looked up): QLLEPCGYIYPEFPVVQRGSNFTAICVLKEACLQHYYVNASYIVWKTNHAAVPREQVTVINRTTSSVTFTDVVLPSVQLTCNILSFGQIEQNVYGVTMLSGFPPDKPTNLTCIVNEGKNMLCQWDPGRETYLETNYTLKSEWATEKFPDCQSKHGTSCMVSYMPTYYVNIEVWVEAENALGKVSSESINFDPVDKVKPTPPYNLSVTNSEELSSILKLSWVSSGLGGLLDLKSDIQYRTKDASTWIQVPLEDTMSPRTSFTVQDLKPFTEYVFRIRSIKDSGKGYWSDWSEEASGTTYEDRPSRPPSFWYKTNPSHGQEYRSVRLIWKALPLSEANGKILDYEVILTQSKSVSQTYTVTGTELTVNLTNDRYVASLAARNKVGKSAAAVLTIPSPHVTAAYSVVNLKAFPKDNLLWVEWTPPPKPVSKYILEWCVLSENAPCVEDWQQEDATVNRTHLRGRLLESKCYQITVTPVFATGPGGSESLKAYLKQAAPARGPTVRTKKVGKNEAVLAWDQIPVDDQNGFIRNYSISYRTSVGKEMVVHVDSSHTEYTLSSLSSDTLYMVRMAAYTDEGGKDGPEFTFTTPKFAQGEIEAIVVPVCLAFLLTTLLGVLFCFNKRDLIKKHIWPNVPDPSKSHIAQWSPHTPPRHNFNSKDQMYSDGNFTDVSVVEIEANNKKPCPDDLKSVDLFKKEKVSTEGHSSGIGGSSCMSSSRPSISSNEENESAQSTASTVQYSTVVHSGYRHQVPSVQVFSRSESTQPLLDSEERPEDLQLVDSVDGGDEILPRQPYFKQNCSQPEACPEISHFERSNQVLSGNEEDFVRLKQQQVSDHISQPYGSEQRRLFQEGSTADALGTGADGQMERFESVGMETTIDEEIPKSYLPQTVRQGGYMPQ

B1: FTV381, human CT-1 variant retaining cysteine 105 with cysteine 178 replaced (ligand)
chain: MSRREGSLEDPQTDSSVSLLPHLEAKIRQTHSLAHLLTKYAEQLLQEYVQLQGDPFGLPSFSPPRLPVAGLSAPAPSHAGLPVHERLRLDAAALAALPPLLDAVCRRQAELNPRAPRLLRRLEDAARQARALGAAVEALLAALGAANRGPRAEPPAATASAASATGVFPAKVLGLRVSGLYREWLSRTEGDLGQLLPGGSA
**Q.** How did the EC50, Stat3 phosphorylation in C2C12 cells (western blot densitometry) [1] turn out when B1 was run?
**A.** The EC50, Stat3 phosphorylation in C2C12 cells (western blot densitometry) was 2 to 5 ng/mL.

**Q.** And the mean EC50, Stat3 phosphorylation in C2C12 cells [1]?
**A.** Its mean EC50, Stat3 phosphorylation in C2C12 cells is 2.5 ng/mL.

B2: FTV384, human CT-1 variant with both natural cysteines replaced with serines and an additional cysteine at its carboxyl terminus (ligand)
chain: MSRREGSLEDPQTDSSVSLLPHLEAKIRQTHSLAHLLTKYAEQLLQEYVQLQGDPFGLPSFSPPRLPVAGLSAPAPSHAGLPVHERLRLDAAALAALPPLLDAVSRRQAELNPRAPRLLRRLEDAARQARALGAAVEALLAALGAANRGPRAEPPAATASAASATGVFPAKVLGLRVSGLYREWLSRTEGDLGQLLPGGSAC
**Q.** Which results are given for B2?
**A.** EC50, Stat3 phosphorylation in C2C12 cells (western blot densitometry) [1]: 4 ng/mL; mean EC50, Stat3 phosphorylation in C2C12 cells [1]: 5 ng/mL

B3: FTV380, human CT-1 variant with cysteine 105 mutated to serine (ligand)
chain: MSRREGSLEDPQTDSSVSLLPHLEAKIRQTHSLAHLLTKYAEQLLQEYVQLQGDPFGLPSFSPPRLPVAGLSAPAPSHAGLPVHERLRLDAAALAALPPLLDAVSRRQAELNPRAPRLLRRLEDAARQARALGAAVEALLAALGAANRGPRAEPPAATASAASATGVFPAKVLGLRVCGLYREWLSRTEGDLGQLLPGGSA
**Q.** How did the EC50, Stat3 phosphorylation in C2C12 cells (western blot densitometry) [1] turn out when B3 was run?
**A.** Its EC50, Stat3 phosphorylation in C2C12 cells (western blot densitometry) is 0.35 ng/mL.

B4: wild type human cardiotrophin-1 (CT-1) polypeptide, FTV370 (ligand)
chain: SRREGSLEDPQTDSSVSLLPHLEAKIRQTHSLAHLLTKYAEQLLQEYVQLQGDPFGLPSFSPPRLPVAGLSAPAPSHAGLPVHERLRLDAAALAALPPLLDAVCRRQAELNPRAPRLLRRLEDAARQARALGAAVEALLAALGAANRGPRAEPPAATASAASATGVFPAKVLGLRVCGLYREWLSRTEGDLGQLLPGGSA
**Q.** B4 was tested. Which “EC50, Stat3 phosphorylation in C2C12 cells (western blot densitometry)” value [2] did it give?
**A.** The value was ~1 ng/mL.
